The assay has as its target pSer110 peptide (IRAKM residues 103-124 with Ser110 phosphorylated). In words: NMR titration, 1H-15N HSQC chemical shift changes.

This note sets out measurements from patent publication US20170112792A1, “ENHANCED ATRA-RELATED COMPOUNDS DERIVED FROM STRUCTURE-ACTIVITY RELATIONSHIPS AND MODELING FOR INHIBITING PIN1” (Beth Israel Deaconess Medical Center, Inc., priority 2014, published 2017).

In general, Kd refers to a measure of binding affinity in units of concentration.

pSer110 peptide (IRAKM residues 103-124 with Ser110 phosphorylated), sequence (peptide, as listed by the source limits assumed): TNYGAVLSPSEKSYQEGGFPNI

As to “15N-labeled Pin1 WW domain (Pin1 residues 1-50) (from UniProt Q13526 1-50)”, the Kd amounted to 60.7 µM.
